Experimental data taken from the DeepSol protein solubility set.

Assay: soluble on expression in E. coli; label from the status in PepcDB or PDB records

Row | Sequence | soluble on expression in E. coli
1 | MECETDEQKQGSDENMSECETSSVCSSSDTGLFTNDEGRQGDDEQSDWFYEGECVPGFTVPNLLPKWAPDHCSEVERMDSGLDKFSDSTFLLPSRPAQRGYHTRLNRLPGAAARCLRKGRRRLVGKETSINTLGTERISHIISDPRQKDFWLPSAGKRERNQFNPLSPLYSLDVLADASHRRCSPAHCSARQANVHWGPPCSRVIKRKRKPVATASLSSPSAVHMDAVEPTTPASQAPKSPSSEWLVRTSAAEKATDATTATFFKMPQEKSPGYSLEHHHHHH | soluble
2 | MECSQEDVVNDFIALEKIGSEVDINLDGVIKSKECSNTNEADIISNLITAIEESLSCTSVCTAVSLETVAQKLDAYADPSLNTQMSFSTASDLSSMEQDYVKASDDPFDLNHQPSPLQVWRDQGKITGFQMMCDDQKVTVVDSLECLAQSEQHLEPVYFDPRVNLAIPCPPDDFEILEDYGSTSNASVNSDDASTAELGPTSEEFEEWVRKIEQNY | not soluble
3 | MEDNNELIKGRGAQMQAKSRFHAQEIVQEHMEGIDEITDINTPTQYLYENAKQIVNKVDSPDIGLAYSMNPYQGCEHGCIYCYARNSHEYWGYNAGIDFEKKIIVKRNAASVLAKTFEKPNWEVLPIMFSGNTDCYQPIERKLQITRNMLQVIATYKHPVGMITKNHLITRDIDILKELAAQQLVHVSISITSARDEIRQKLEPRASAISQRLKTVEALAKENIPVNVMIAPIIPGINHHEIPQIMKQIADAGASSAAYTIVRLNGSIGVVFEDWIRKAYPDRADKVLNQIKECHGGTLNDSRFSTRMRGQGNIAASIHDLFYVSRKKYLSGREYPPLRTDLFVRSNKGQLGLF | not soluble
4 | MEDQDLLEIGILNSGHRQRILQAIQLLPKMRPIGHDGYHPTSVAEWLDSIELGDYTKAFLINGYTSMDLLKKIWEVELINVLKINLIGHRKRILASLGDRLHDDPPQKPPRSITLREPSGNHTPPQLSPSLSQSTYTTGGSLDVPHIIMQGDARRRRNENYFDDIPRSKLERQMAQSSVCEIWTNQNAGFPFSAIHQVHNTGDWGEPSITLRPPNEATASTPVQYWQHHPEKLIFQSCDYKAFYLGSMLIKELRGTESTQDACAKMRANCQKSTEQMKKVPTIILSVSYKGVKFIDATNKNIIAEHEIRNISCAAQDPEDLSTFAYITKDLKSNHHYCHVFTAFDVNLAYEIILTLGQAFEVAYQLALQARKGGHSSTLPESFENKPSKPIPKPRVSIRKSVQIDPSEQKTLANLPWIVEPGQEAKRGINTKYETTIF | soluble
5 | MEDRIQKAVELFKSGYNCSQSVVAAFADMYGFTQEQAVRMSASFGGGIGRMRETCGAACGLFLIAGLETGATEATDREGKAANYAVVQELAAEFKKRNGSLICGELLGLKKKEPISTVPEERNTQYYSKRPCAKMVEEAARIWVEYLEKHPK | not soluble
6 | MEEGIKMGTKLTSLFKEGEKYQINTKYKELPIKTNLKLLWIDENMKLLGFSIGACVFKGAFTPGTEVYIKINGKYAYGKVFSCSNELVIEFKEIRKEPEFIRRRTVRVEPDPANPVVVELKVDSYSIKTKAKDISETGVGVILEKDKPESAEVIDIIQKNPNSWFDLYVHLPKHGTAHAKGRVRNLSIEEEGIYIRIGFEAEYSKEDREKVRRYVFERQQEIIKSLKML | not soluble
7 | MEFGEKLIHLRKKNRLTQKQLAAKIGTTASTISKYENDNHRPPIFILAKLAEILGTTTDFLLDDVAGLREKNSVNAFPLIGNPELEKWYLELPYTYSEEELLMLKRIADAIENKK | not soluble
8 | MEFINNITIRARVAFYLAVAQKAFEGLSENDQGYLQADEALKQCWNWLKGKNISGDELCEYLENERDTGLMVYSSFVQGDPVKEPIWITIITALMYTIWQAYQIENEKYLPESIEQVDEGTIDILIEYAKKCANYDEHWIKLLENYLLEKYRTTNMNEVGIAILKDEIMGIR | soluble
9 | MEFMSAPANAVAADDATAIALKYNQDATKSERVAAARPGLPPEEQHCANCQFMQADAAGATDEWKGCQLFPGKLINVNGWSASWTLKAG | soluble
10 | MEFVLASASPARRRLLQGIGINPIVHVSHFDESQIHHDDPAQLVEALAAAKAKTVAQHRQDALILGCDSVLHVRGEILGKPASPTEAIARWQTMRGHYGLLYTGHALVDQTQNQLLVRHGVTKVYFAAIDDDTIAAYVRSGEPLQCAGCFALEGKGGLFIEKIEGCHSNVIGLSLPLLREMLAHLGYTVQTLWP | not soluble
11 | MEGLGRSCLWLRRELSPPRPRLLLLDCRSRELYESARIGGALSVALPALLLRRLRRGSLSVRALLPGPPLQPPPPAPVLLYDQGGGRRRRGEAEAEAEEWEAESVLGTLLQKLREEGYLAYYLQGGFSRFQAECPHLCETSLAGRAGSSMAPVPGPVPVVGLGSLCLGSDCSDAESEADRDSMSCGLDSEGATPPPVGLRASFPVQILPNLYLGSARDSANLESLAKLGIRYILNVTPNLPNFFEKNGDFHYKQIPISDHWSQNLSRFFPEAIEFIDEALSQNCGVLVHCLAGVSRSVTVTVAYLMQKLHLSLNDAYDLVKRKKSNISPNFNFMGQLLDFERSLRLEERHSQEQGSGGQASAASNPPSFFTTPTSDGAFELAPT | soluble
12 | MEGLLMYDVHSKHADDFISHEEILETLAYADENKTNEALIDSILEKARLRKGLSHREASVLLACPIEEKNQEIYRLAEQIKKDFYGNRIVMFAPLYLSNYCVNGCTYCPYHLKNKHIARKQLTQEEIRKEVIALQDMGHKRLALEAGEDPVRNTIDYYLESIKTIYSIKHKNGAIRRVNINIAATTVDNYRLLKEAGIGTYILFQETYHKESYLALHPTGPKHDYNYHTEAMDRAMEGGIDDVGIGVLFGLDKYRYEFAGLLMHAEHLEAAFGVGPHTISVPRLRHADDINADEFDNGIDDDTFAKIVACIRIAVPYTGMIISTRESQKCRERVLHLGVSQISGGSRTSVGGYCEPEPDDAKSEQFDVSDTRTLDEVVRWLMEMDYIPSFCTACYREGRTGDRFMSLCKSGQIQNCCHPNALMTLKEYLMDYASPETKAIGDRLIDKEVLNVPNEKARAVVLENLRLIEQNNRRDFRF | not soluble
13 | MEGLSMDQVVIFKQIFDKVRNDLNYQWFYSELKRHNVSHYIYYLATENVHIVLKNDNTVLLKGLKNIVSVKFSKDRHLIETTSNKLKSREITFQEYRRNLAKAGVFRWVTNIHEQKRYYYTFDNSLLFTESIQKTTQILPRLEHHHHHH | soluble
14 | MEGVVRLEVPTPEEGFVNITRKVEAALSGHTGLVYLFVPHTTCGLTVQEGADPTVAQDLLGRLAELAPRHRPQDRHLEGNSHAHLKSLLTGVHLLLLAEKGRLRLGRWQQVFLAEFDGPRVREVWVRLL | soluble
15 | MEHREALIALRTFLSTQILGQEKLIERLLIALLADGHMLVEGAPGLAKTKAIKELAEGIEAQFHRIQFTPDLLPADITGTEIYRPETGSFVFQQGPIFHNLVLADEINRAPAKVQSALLEAMAERQVSVGRSTYDLSPLFLVMATQNPIEQEGTYPLPEAQLDRFLMHVKIGFPDAAVERKILQQARGEALNGETKPERRVSQQAIFAARKEILGLYMADAVEEYLVQLVMATRTPAKFDPELAEWIAYGASPRGSISLDRCARAHAWLAGRDFVSPEDIQAVLFDVLRHRIILSFEAEAAGIDQDRVIQRILDVVAVALEHHHHHH | soluble
16 | MEHTIAVIPGSFDPITYGHLDIIERSTDRFDEIHVCVLKNSKKEGTFSLEERMDLIEQSVKHLPNVKVHQFSGLLVDYCEQVGAKTIIRGLRAVSDFEYELRLTSMNKKLNNEIETLYMMSSTNYSFISSSIVKEVAAYRADISEFVPPYVEKALKKKFKLEHHHHHH | soluble
17 | MEIDDCIRDNIPWANLSPDIKVILGNSSKEYEKRVLEYSIQNQLRYKGNLIRHMKKSEEAYYEQLLRFSESHLMLYPYHLSDITVTEMRLSPFSYYANILTEMLNTEKSYDSLPNFTAADAVRLLGIGRNQYIELMNQTRSNRKFLRRSKSARELLPQKPTKMIVESWWRTNVGSILESDVKTLNEEEKQVIDRLLDTNVAIPAGLLKYSVVTSLYDRGLIYFDVPVYDNDYIYVAPLDGFVMNRVLGDYFETLLYKIFVAIDDQTTVLEMSQILHIDLQLVKNAISVFCRLGFARKRVTGGENLTIHTSWTSNSTVTTPMSPISPMSSLITSTSDELNELTKTLLRGDDDETDDALSPVSEDSALRASSPNPSLNNSVESFQSLSTSQTASDLSGSSGTVNRAAFIFDSTLTAFLMMGNLSASLKGHAVALFEVGKLADEQMKEFLEQLESVNQFAEGDAQRYSMHATALLDSLKSLRQEREADLIRGESLYTLDEKSRQRVLQKSYGILVAMAPLSIEACAIPVQSVPLIGPPNAETCSPWFRLSIYSACSSGPPSVFLPHGTRLTTLPRVLQSFQHHRFLVSSTKHEPHIMTAQNALFALNDMLVYSSIFVQSVPLDSEDCDKMIHVPFPFEDLECETAFCNHPAIRKLREQLSLDFTAGYVILLKKSGKSITTSGSDISGRTKAESNIMQDVSLPKDGGLLKKLLPGTSFDDFLLLDCVFGVPLFNSVLNETICKRILGRGILEQQNRSNIQNSNKQVVGMINELIDTANNGLIKGSQLFVEGTDQQRNAQIVPPVRAIFFDSSQLISYGTI | not soluble
18 | MEIERINEHTVKFYISYVDIEERGFDREEIWYNRERSEELFWEMMDEVHGESDFSLDGPLWIQVQALEKGLEVVVTKAQLSKDGSKLELPLPEEKWREFSLSADEKVESLFGHHFHFGQNGDAEEREEQDVLRFILSFKDIEDVISLAHRADFSRLSNRLFQFEGRYYLFVEFDERYTEQEVDNMLSLLLEYGSDSQLTIYRLEEYGTEIMGDNALETIKTYFPAS | not soluble
19 | MEIIKISPRGYCYGVIDAMVIAKNASLDPNLPRPIHILGMIVHNKHVTDAFESIGIYTVDGANREEILDKITTGTVIFTAHGVSPSVKAKAVAKGLTTIDATCPDVLHTYNLILEKQAAGYEIIYIGKKGHPEPEGAYGTAPDVVHLVETKADIDALSLLSDKIFVTNQTTMSKWDVADLMHYIKGKFPKAIQHQEICMATQVRQEAVALQAKDADLTIVVGDPRSNNTARLAQVSIEKAGTKAYRIADITELDIEWIKDAKKVAVTAGASTPTQLVREVLLFLEQFDAADKTTWKREHNQDFERILPKTKNKYMAEKRSQRLAHLKNGGSLEHHHHHH | not soluble
20 | MEIKQTIAKNLNRVKNELGLKNQDLAEVMGVTRQTIAKYLKGEQIPDSAKLFLLSRRLNIPMKDLIVSSDDQREPMSSFMFRADNPKENFRLIDQNQVNRIMDDYYELLASFGEASVAYLPPTYKLKLVDHELTEEHKTIIRQAAEQTRKMFGLDHVIPSDIYAVLEHHGIHVIALKTIDKKIDGLSAYSEEKGAFIFLNDHDEIPEERKRFSVIHELGHLIFHREEYRSDLSSLTYSSARREINEKVATLFASYFLIPREQLREYAYYFKRYVTIETIMELKRQFFVSAEAFMRALLDEQYISGRTYGFLRKTLREQGYKEQEPAPIDYIPKNRKLTYFVKQAYFEGSITINKVCEILGCDLRTAREMIKGWYKEHGCSENTGAL | not soluble
21 | MEILEEKPKEGKVKIKVETLDDLWHLYHIITPGDVVYAKTLRKQSQRSDSLRPEKVEVIPVFLGVKVEKINFHKFANQLRVTGPIIYASREDVPLGKYHTIAVEPGTIITLQKERWKPYYIERLKEAVEASKRAKVMIVTIEDGEAEMAIVREYGLDFIATIRHNLGGKRYNIKREDEERKFFHDVAKTMKDVMSRENIQRAIVAGPGFYKEDFYKFLKENYPDLASKIVLDDTSMGGRVGIYEVIKRGTVDKVYSESRIANEIKLVEKVIERIAKDEPVAYGMKEVEEAVNYGAVEILLVLDELLKGDNREKVEELMELARSLRSKVVVVSSEHEGGEKLKALGGIAGILRFKIK | soluble
